Experimental data reported in FireProtDB (doi:10.1074/jbc.m304177200).

B1: Guanyl-specific ribonuclease Sa, P05798 (parent)
chain: DVSGTVCLSALPPEATDTLNLIASDGPFPYSQDGVVFQNRESVLPTQSYGYYHEYTVITPGARTRGTRRIITGEATQEDYYTGDHYATFSLIDQTC

Variants of: B1
Details: Kitasatospora aureofaciens, pH 7, Thermal, CD, MOPS 30 mM, reversible: yes(>95%), structure 1RGG, whole UniProt chain shown; for ddG of mutation (higher = less stable): 48.4 °C

In the case of DTSGTVCLSALPPEATDTLNLIASDGPFPYSQDGVVFQNRESVLPTQSYGYYHEYTVITPGARTRGTRRIITGEATQEDYYTGDHYATFSLIDQTC [V2T], the “ddG of mutation (higher = less stable)” value is reported as 0.9 kcal/mol, the Tm is reported as 45.2 °C and the “change of melting temperature, mutant - wild type (higher = more stable)” value (shortened to “change of melting temperature, mutant”) is reported as -3.2 °C. For the same variant, the “unfolding enthalpy (van 't Hoff)” value was 86 kcal/mol.

With DVSGTVCLSALPPEAVDTLNLIASDGPFPYSQDGVVFQNRESVLPTQSYGYYHEYTVITPGARTRGTRRIITGEATQEDYYTGDHYATFSLIDQTC [T16V] the “ddG of mutation (higher = less stable)” value was -0.3 kcal/mol, the Tm was 49.4 °C and the “change of melting temperature, mutant” value was 1 °C. For the same variant, the “unfolding enthalpy (van 't Hoff)” value was 88 kcal/mol.

With DVSGTVCLSALPPEATDTLNLIASDGPFPYSQDGVVFQNRESVLPTQSYGYYHEYTVITPGARTRGTRRIITGEATQEDYYVGDHYATFSLIDQTC [T82V] the “ddG of mutation (higher = less stable)” value was 1.7 kcal/mol, the Tm was 42.7 °C and the “change of melting temperature, mutant” value was -5.7 °C. For the same variant, the “unfolding enthalpy (van 't Hoff)” value was 81 kcal/mol.

In the case of DVSGTVCLSALPPEATDTLNLIASDGPFPYSQDGVVFQNRESVLPTQSYGYYHEYVVITPGARTRGTRRIITGEATQEDYYTGDHYATFSLIDQTC [T56V], the “ddG of mutation (higher = less stable)” value is reported as 1.9 kcal/mol, the Tm is reported as 42.1 °C and the “change of melting temperature, mutant” value is reported as -6.3 °C. The “unfolding enthalpy (van 't Hoff)” value was 85 kcal/mol.

In the case of DVSGTVCLSALPPEATDTLNLIASDGPFPYSQDGVVFQNRESTLPTQSYGYYHEYTVITPGARTRGTRRIITGEATQEDYYTGDHYATFSLIDQTC [V43T], the “ddG of mutation (higher = less stable)” value is reported as 0.5 kcal/mol, the Tm is reported as 46.8 °C and the “change of melting temperature, mutant” value is reported as -1.6 °C. For the same variant, the “unfolding enthalpy (van 't Hoff)” value was 93 kcal/mol.

With DVSGTVCLSALPPEATDTLNLIASDGPFPYSQDGVVFQNRESVLPTQSYGYYHEYTVIVPGARTRGTRRIITGEATQEDYYTGDHYATFSLIDQTC [T59V] the “ddG of mutation (higher = less stable)” value was 1.7 kcal/mol, the Tm was 42.8 °C and the “change of melting temperature, mutant” value was -5.6 °C. For the same variant, the “unfolding enthalpy (van 't Hoff)” value was 81 kcal/mol.

For DVSGTVCLSALPPEATDTLNLIASDGPFPYSQDGVTFQNRESVLPTQSYGYYHEYTVITPGARTRGTRRIITGEATQEDYYTGDHYATFSLIDQTC [V36T], the “ddG of mutation (higher = less stable)” value was 1.3 kcal/mol, the Tm was 43.8 °C and the “change of melting temperature, mutant” value was -4.6 °C. For the same variant, the “unfolding enthalpy (van 't Hoff)” value was 88 kcal/mol.

In the case of DVSGTVCLSALPPEATDTLNLIASDGPFPYSQDGVVFQNRESVLPTQSYGYYHEYTVITPGARTRGVRRIITGEATQEDYYTGDHYATFSLIDQTC [T67V], the “ddG of mutation (higher = less stable)” value is reported as 0 kcal/mol, the Tm is reported as 48.3 °C and the “change of melting temperature, mutant” value is reported as -0.1 °C. For the same variant, the “unfolding enthalpy (van 't Hoff)” value was 88 kcal/mol.

For DVSGVVCLSALPPEATDTLNLIASDGPFPYSQDGVVFQNRESVLPTQSYGYYHEYTVITPGARTRGTRRIITGEATQEDYYTGDHYATFSLIDQTC [T5V], the “ddG of mutation (higher = less stable)” value was 0 kcal/mol.

In the case of DVSGTVCLSALPPEATDVLNLIASDGPFPYSQDGVVFQNRESVLPTQSYGYYHEYTVITPGARTRGTRRIITGEATQEDYYTGDHYATFSLIDQTC [T18V], the “ddG of mutation (higher = less stable)” value is reported as 1.4 kcal/mol, the Tm is reported as 43.7 °C and the “change of melting temperature, mutant” value is reported as -4.7 °C. The “unfolding enthalpy (van 't Hoff)” value was 80 kcal/mol.

With DVSGTVCLSALPPEATDTLNLIASDGPFPYSQDGVVFQNRESVLPTQSYGYYHEYTVITPGARTRGTRRIIVGEATQEDYYTGDHYATFSLIDQTC [T72V] the “ddG of mutation (higher = less stable)” value was 0.2 kcal/mol, the Tm was 47.6 °C and the “change of melting temperature, mutant” value was -0.8 °C. For the same variant, the “unfolding enthalpy (van 't Hoff)” value was 91 kcal/mol.

With DVSGTVCLSALPPEATDTLNLIASDGPFPYSQDGVVFQNRESVLPTQSYGYYHEYTTITPGARTRGTRRIITGEATQEDYYTGDHYATFSLIDQTC [V57T] the “ddG of mutation (higher = less stable)” value was 4.4 kcal/mol, the Tm was 33.4 °C and the “change of melting temperature, mutant” value was -15 °C. For the same variant, the “unfolding enthalpy (van 't Hoff)” value was 74 kcal/mol.
